Assay results reported in US20210269836A1 (JOHN INNES CENTRE, published 2021).

Experiments:
[1] = molecular target: T1, LAMT-YFPC (loganic acid methyltransferase fused to the C-terminal split YFP fragment) (UniProt B2KPR3 1-371); experiment: BiFC in transiently transformed C. roseus cells
T1 construct: Control construct of the BiFC assay; also called LAMT-YC; not shown: C-terminal split YFP fragment (YFPC)
T1 sequence (looked up): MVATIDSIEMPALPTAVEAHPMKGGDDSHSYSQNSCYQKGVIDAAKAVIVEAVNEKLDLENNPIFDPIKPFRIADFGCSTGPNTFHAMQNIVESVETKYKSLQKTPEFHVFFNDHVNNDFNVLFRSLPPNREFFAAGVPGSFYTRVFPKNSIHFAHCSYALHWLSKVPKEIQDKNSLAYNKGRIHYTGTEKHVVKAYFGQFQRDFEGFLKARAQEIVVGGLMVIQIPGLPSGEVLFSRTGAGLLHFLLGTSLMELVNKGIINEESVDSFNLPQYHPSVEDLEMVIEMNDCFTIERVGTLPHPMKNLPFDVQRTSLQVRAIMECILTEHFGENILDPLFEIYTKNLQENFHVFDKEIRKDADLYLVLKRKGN
Description: (§1) Interaction of DPAS with TS and CS. DPAS/CS and DPAS/TS interactions were analyzed by BiFC in C. roseus cells transiently transformed by distinct combinations of plasmids encoding fusions with the two split YFP fragments, YFPN (YN) and YFPC (YC) as indicated on each pictures of the first row (A, D, G, J, M). Identification of transiently transformed cells was achieved by co-transformation with the nucleus (nuc)-CFP marker(B, E, H, K, N). […] Interactions of DPAS and TS with loganic acid methyltransferase (LAMT)-YN and LAMT-YC were also studied to evaluate the specificity of DPAS/TS interactions. Cell morphology is observed with differential interference contrast (DIC) (C, F, I, L, O). Scale bars, 10 μm.
(§2) Transient transformation of C. roseus cells by particle bombardment and fluorescence imaging were performed. Briefly, C. roseus plated cells were bombarded with DNA-coated gold particles (1 μm) and 1,100 psi rupture disc at a stopping-screen-to-target distance of 6 cm, using the Bio-Rad PDS1000/He system. Cells were cultivated for 16 h to 38 h (DPAS, CS and TS) or up to 96 h for PAS before being harvested and observed. The subcellular localization was determined using an Olympus BX-51 epifluorescence microscope equipped with an Olympus DP-71 digital camera and a combination of YFP and CFP filters. […]

[2] = molecular target: T2, LAMT-YFPN (loganic acid methyltransferase fused to the N-terminal split YFP fragment) (UniProt B2KPR3 1-371); experiment: BiFC in transiently transformed C. roseus cells
T2 construct: Control construct of the BiFC assay; also called LAMT-YN; not shown: N-terminal split YFP fragment (YFPN)
T2 sequence (looked up): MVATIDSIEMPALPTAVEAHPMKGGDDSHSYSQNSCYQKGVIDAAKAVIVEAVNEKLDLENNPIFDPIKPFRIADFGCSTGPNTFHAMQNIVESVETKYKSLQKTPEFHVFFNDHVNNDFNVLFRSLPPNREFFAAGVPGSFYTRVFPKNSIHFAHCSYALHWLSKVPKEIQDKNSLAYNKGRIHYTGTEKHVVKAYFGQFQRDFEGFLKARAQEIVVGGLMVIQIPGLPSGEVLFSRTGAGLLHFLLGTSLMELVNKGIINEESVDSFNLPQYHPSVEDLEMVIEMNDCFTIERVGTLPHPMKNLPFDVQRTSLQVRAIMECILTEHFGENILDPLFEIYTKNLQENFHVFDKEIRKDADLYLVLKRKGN
Description: as §1, §2

Binder | binding result [1] | binding result [2]
TS-YFPN (Tabersonine Synthase fused at its C-terminus to the N-terminal split YFP fragment) (enzyme, BiFC fusion expressed transiently inside C. roseus cells; also called TS-YN; not shown: N-terminal split YFP fragment (YFPN) from plasmid pSCA-SPYNE173) MGSSDETIFDLPPYIKVFKDGRVERLHSSPYVPPSLNDPETGGVSWKDVPISSVVSARIYLPKINNHDEKLPIIVYFHGAGFCLESAFKSFFHTYVKHFVAEAKAIAVSVEFRLAPENHLPAAYEDCWEALQWVASHVGLDISSLKTCIDKDPWIINYADFDRLYLWGDSTGANIVHNTLIRSGKEKLNGGKVKILGAILYYPYFLIRTSSKQSDYMENEYRSYWKLAYPDAPGGNDNPMINPTAENAPDLAGYGCSRLLISMVADEARDITLLYIDALEKSGWKGELDVADFDKQYFELFEMETEVAKNMLRRLASFIK | no binding | 
YFPC-DPAS (dehydroprecondylocarpine acetate synthase fused at its N-terminus to the C-terminal split YFP fragment) (enzyme, BiFC fusion expressed transiently inside C. roseus cells; also called YC-DPAS; dihydroprecondylocarpine acetate synthase; not shown: C-terminal split YFP fragment (YFPC) from plasmid pSCA-SPYCE (MR)) MAGKSAEEEHPIKAYGWAVKDRTTGILSPFKFSRRATGDDDVRIKILYCGICHTDLASIKNEYEFLSYPLVPGMEIVGIATEVGKDVTKVKVGEKVALSAYLGCCGKCYSCVNELENYCPEVIIGYGTPYHDGTICYGGLSNETVANQSFVLRFPERLSPAGGAPLLSAGITSFSAMRNSGIDKPGLHVGVVGLGGLGHLAVKFAKAFGLKVTVISTTSKKDDAINGLGADGFLLSRDDEQMKAAIGTLDAIIDTLAVVHPIAPLLDLLRSQGKFLLLGAPSQSLELPPIPLLSGGKSIIGSAAGNVKQTQEMLDFAAEHDITANVEIIPIEYINTAMERLDKGDVRYRFVVDIENTLTPPSEL |  | no binding
